Values joined by “and” are separate entries in the source; they are usually repeats but may differ in a detail not shown here. Equal values may be shown once. Each block holds one molecule with its values, some of them ahead of it.
Experiments:
[1] = molecular target: SpSMN/SpG2^ΔN80/SpG6/SpG7/SpG8^Δ35–58 complex (S. pombe) (UniProt Q09808); test: SEC-SAXS; full length SpSMN complexes at various concentrations; molecular weight against the standard SpSMNΔ36–119S130D/SpG2ΔN80
[2] = molecular target: the molecule itself; test: SEC; gel filtration chromatography of MBP-YG-domain 252–284 fusion proteins
[3] = molecular target: the molecule itself; test: SEC-SAXS; low concentrations (peak concentrations 5.8–16 μM); Superdex 200 10/300, 150 mM NaCl, 20 mM HEPES, 1 mM DTT, pH 7.5, 20°C
[4] = molecular target: the molecule itself; test: SEC-SAXS; full length SpSMN complexes at various concentrations; molecular weight against the standard SpSMNΔ36–119S130D/SpG2ΔN80
HsG7^46–131 = molecular target: T1, HsG7^46–131 (human, UniProt Q9H840 46-131); test: crystal structure; HsG6 1–92/HsG7 46–131/HsG8 190–230, 1.52 Å, PDB 7BBL; conditions: both partners purified
T1 construct: human Gemin7, residues 46-131 (residues 47-131 in the model); also called human Gemin7 46-131; His6-HsG7^46–131; source: E. coli BL21(DE3), co-expressed with HsG6 1-92, purified
T1 sequence (looked up): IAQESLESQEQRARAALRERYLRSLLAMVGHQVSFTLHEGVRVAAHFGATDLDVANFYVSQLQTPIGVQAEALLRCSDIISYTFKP

- stoichiometry N [1]: 4
Molecule: SpSMN/SpG2^ΔN80/SpG6/SpG7/SpG8^Δ35–58 complex (from UniProt Q09808 1-152; P0CU08 81-235)

B1: MBP-Hs-YG-domain^252–284 (wt) (domain or fragment, human, UniProt Q16637 252-284, looked up)
chain: DSLDDADALGSMLISWYMSGYHTGYYMGFRQNQ
notes: human SMN, YG-domain, residues 252-284; vector pETM-41; also called MBP fusion of human YG-box^252–284; wild-type construct; source: E. coli BL21(DE3), purified; immobilized on Amylose resin for the pull-down
- binding result [2]: binds

B2: MBP-Hs-YG-domain^252–284 H273R (domain or fragment, human, UniProt Q16637 252-284, looked up)
chain: DSLDDADALGSMLISWYMSGYRTGYYMGFRQNQ
notes: human SMN, YG-domain, residues 252-284, SMA-causing missense mutation H273R; source: E. coli BL21(DE3), purified; immobilized on Amylose resin for the pull-down
- binding result [2]: binds

B3: SpSMN^Δ36–119S130D/SpG2^ΔN80 complex (complex, S. pombe)
chain 1: MDQSQKEVWDDSELRNAFETALHEFKKYHSIEAKGYDETYKKLIMDWYYAGYYTGLAEGLAKSEQRKD
chain 2: RKLEIEAGKKSFDPFLRYLLNIIDKEGERLEQYMESSSLDASILPKNLQQWRVYIEHKAPCWAILAVVDLATVLEILESLSSWLEKDAIDLQSQWIFCFCYKLPELLNGEDISTLRSVLKSLRSTHTSFPALQMSASALQAVLVYRYGQKDLFQT
notes: Gemin2 of Schizosaccharomyces pombe (SpG2) lacking the N-terminus (ΔN80); also called S130D mutant; source: E. coli BL21(DE3), co-expressed (SpSMNΔ36–119S130D/His6-SpG2ΔN80), purified (Ni-NTA, TEV, dialysis); not shown: His6, N-terminal, cleaved
- stoichiometry N [3]: 2

B4: SpSMN^Δ36–119A134E/SpG2^ΔN80 complex (complex, S. pombe)
chain 1: MDQSQKEVWDDSELRNAFETALHEFKKYHSIEAKGYDETYKKLIMSWYYEGYYTGLAEGLAKSEQRKD
chain 2: RKLEIEAGKKSFDPFLRYLLNIIDKEGERLEQYMESSSLDASILPKNLQQWRVYIEHKAPCWAILAVVDLATVLEILESLSSWLEKDAIDLQSQWIFCFCYKLPELLNGEDISTLRSVLKSLRSTHTSFPALQMSASALQAVLVYRYGQKDLFQT
notes: Gemin2 of Schizosaccharomyces pombe (SpG2) lacking the N-terminus (ΔN80); also called A134E mutant; source: E. coli BL21(DE3), co-expressed (SpSMNΔ36–119A134E/His6-SpG2ΔN80), purified (Ni-NTA, TEV, dialysis); not shown: His6, N-terminal, cleaved
- stoichiometry N [3]: 2

B5: SpSMN/SpG2^ΔN80 complex (complex, S. pombe)
chain 1: MDQSQKEVWDDSELRNAFETALHEFKKYHSIEAKGGVSDPDSRLDGEKLISAARTEESISKLEEGEQMINQQTETTLEGDTHIQQFADNKGLSDEKPETRAAETHQEFMEVPPPIRGLTYDETYKKLIMSWYYAGYYTGLAEGLAKSEQRKD
chain 2: RKLEIEAGKKSFDPFLRYLLNIIDKEGERLEQYMESSSLDASILPKNLQQWRVYIEHKAPCWAILAVVDLATVLEILESLSSWLEKDAIDLQSQWIFCFCYKLPELLNGEDISTLRSVLKSLRSTHTSFPALQMSASALQAVLVYRYGQKDLFQT
notes: SMN of Schizosaccharomyces pombe (SpSMN); Gemin2 of Schizosaccharomyces pombe (SpG2) lacking the N-terminus (ΔN80); source: E. coli BL21(DE3), co-expressed (SpSMN/His6-SpG2ΔN80), purified (Ni-NTA, TEV, dialysis); not shown: His6, N-terminal, cleaved
- stoichiometry N [4]: 6 and 8

- binding result (HsG7^46–131): binds
B6: HsG8^190–230 (domain or fragment, human, UniProt Q9NWZ8 190-230, looked up)
chain: TERPGERRQAEMKRLYGDSAAKIQAMEAAVQLSFDKHCDRK
notes: human Gemin8, residues 190-230 (also printed as 191-230; residues 191-227 in the model); also called HsG8^191–230; human Gemin8 C-terminus; source: E. coli BL21(DE3), purified (Glutathione Sepharose, PreScission); not shown: His6, N-terminal, cleaved; GST, N-terminal, cleaved
